From patent publication US20140087995A1 (published 2014) come the findings set out here.

Numbered stars: 1 amine (or outer) side, 2 acyl side, 3 side chain; on linkers, the order of the positions; unused ones are H or OH. Bridge positions count the residues as written; N and C are the ends. Side chains are listed from the residue outwards. Ends that are not written are not given here. * marks the point of attachment. C20 diacid = O=C(O)CCCCCCCCCCCCCCCCCCC(=O)*; γGlu = O=C(O)[C@H](CCC(=O)[*:2])N[*:1]

The labels stand for the following.
B1: N^ε21-[(4S)-4-carboxy-4-[[(4S)-4-carboxy-4-(19-carboxynonadecanoylamino)butanoyl]amino]butanoyl]-[Asp14,Arg17,Lys21,Pro27,Asp35]-h-amylin (peptide)
peptide: KCNTATCATQRLADFLRHSSK([γGlu-γGlu-C20 diacid])NFGAIPSSTNVGSDTY-NH2
modifications: disulfide 2-7; N-terminus assumed
SMILES: CC[C@H](C)[C@H](NC(=O)[C@H](C)NC(=O)CNC(=O)[C@H](Cc1ccccc1)NC(=O)[C@H](CC(N)=O)NC(=O)[C@H](CCCCNC(=O)CC[C@H](NC(=O)CC[C@H](NC(=O)CCCCCCCCCCCCCCCCCCC(=O)O)C(=O)O)C(=O)O)NC(=O)[C@H](CO)NC(=O)[C@H](CO)NC(=O)[C@H](Cc1c[nH]cn1)NC(=O)[C@H](CCCNC(=N)N)NC(=O)[C@H](CC(C)C)NC(=O)[C@H](Cc1ccccc1)NC(=O)[C@H](CC(=O)O)NC(=O)[C@H](C)NC(=O)[C@H](CC(C)C)NC(=O)[C@H](CCCNC(=N)N)NC(=O)[C@H](CCC(N)=O)NC(=O)[C@@H](NC(=O)[C@H](C)NC(=O)[C@@H]1CSSC[C@H](NC(=O)[C@@H](N)CCCCN)C(=O)N[C@@H](CC(N)=O)C(=O)N[C@@H]([C@@H](C)O)C(=O)N[C@@H](C)C(=O)N[C@@H]([C@@H](C)O)C(=O)N1)[C@@H](C)O)C(=O)N1CCC[C@H]1C(=O)N[C@@H](CO)C(=O)N[C@@H](CO)C(=O)N[C@H](C(=O)N[C@@H](CC(N)=O)C(=O)N[C@H](C(=O)NCC(=O)N[C@@H](CO)C(=O)N[C@@H](CC(=O)O)C(=O)N[C@H](C(=O)N[C@@H](Cc1ccc(O)cc1)C(N)=O)[C@@H](C)O)C(C)C)[C@@H](C)O
notes: Analogue of human amylin; also called compound 59
B2: N^ε-[(4S)-4-carboxy-4-(19-carboxynonadecanoylamino)butanoyl]Lys[Arg1,Arg17,Pro21,Pro27,His35]-h-amylin (peptide)
peptide: K([γGlu-C20 diacid])RCNTATCATQRLANFLRHSSPNFGAIPSSTNVGSHTY-NH2
modifications: disulfide 3-8; N-terminus assumed
SMILES: CC[C@H](C)[C@H](NC(=O)[C@H](C)NC(=O)CNC(=O)[C@H](Cc1ccccc1)NC(=O)[C@H](CC(N)=O)NC(=O)[C@@H]1CCCN1C(=O)[C@H](CO)NC(=O)[C@H](CO)NC(=O)[C@H](Cc1c[nH]cn1)NC(=O)[C@H](CCCNC(=N)N)NC(=O)[C@H](CC(C)C)NC(=O)[C@H](Cc1ccccc1)NC(=O)[C@H](CC(N)=O)NC(=O)[C@H](C)NC(=O)[C@H](CC(C)C)NC(=O)[C@H](CCCNC(=N)N)NC(=O)[C@H](CCC(N)=O)NC(=O)[C@@H](NC(=O)[C@H](C)NC(=O)[C@@H]1CSSC[C@H](NC(=O)[C@H](CCCNC(=N)N)NC(=O)[C@@H](N)CCCCNC(=O)CC[C@H](NC(=O)CCCCCCCCCCCCCCCCCCC(=O)O)C(=O)O)C(=O)N[C@@H](CC(N)=O)C(=O)N[C@@H]([C@@H](C)O)C(=O)N[C@@H](C)C(=O)N[C@@H]([C@@H](C)O)C(=O)N1)[C@@H](C)O)C(=O)N1CCC[C@H]1C(=O)N[C@@H](CO)C(=O)N[C@@H](CO)C(=O)N[C@H](C(=O)N[C@@H](CC(N)=O)C(=O)N[C@H](C(=O)NCC(=O)N[C@@H](CO)C(=O)N[C@@H](Cc1c[nH]cn1)C(=O)N[C@H](C(=O)N[C@@H](Cc1ccc(O)cc1)C(N)=O)[C@@H](C)O)C(C)C)[C@@H](C)O
notes: Analogue of human amylin; also called compound 44
B3: N^-1-[(4S)-4-carboxy-4-(19-carboxynonadecanoylamino)butanoyl]-Gly[Arg1,Arg17,Pro21,Pro27,His35]-h-amylin (peptide)
peptide: {C20 diacid-γGlu}-GRCNTATCATQRLANFLRHSSPNFGAIPSSTNVGSHTY-NH2
modifications: disulfide 3-8
SMILES: CC[C@H](C)[C@H](NC(=O)[C@H](C)NC(=O)CNC(=O)[C@H](Cc1ccccc1)NC(=O)[C@H](CC(N)=O)NC(=O)[C@@H]1CCCN1C(=O)[C@H](CO)NC(=O)[C@H](CO)NC(=O)[C@H](Cc1c[nH]cn1)NC(=O)[C@H](CCCNC(=N)N)NC(=O)[C@H](CC(C)C)NC(=O)[C@H](Cc1ccccc1)NC(=O)[C@H](CC(N)=O)NC(=O)[C@H](C)NC(=O)[C@H](CC(C)C)NC(=O)[C@H](CCCNC(=N)N)NC(=O)[C@H](CCC(N)=O)NC(=O)[C@@H](NC(=O)[C@H](C)NC(=O)[C@@H]1CSSC[C@H](NC(=O)[C@H](CCCNC(=N)N)NC(=O)CNC(=O)CC[C@H](NC(=O)CCCCCCCCCCCCCCCCCCC(=O)O)C(=O)O)C(=O)N[C@@H](CC(N)=O)C(=O)N[C@@H]([C@@H](C)O)C(=O)N[C@@H](C)C(=O)N[C@@H]([C@@H](C)O)C(=O)N1)[C@@H](C)O)C(=O)N1CCC[C@H]1C(=O)N[C@@H](CO)C(=O)N[C@@H](CO)C(=O)N[C@H](C(=O)N[C@@H](CC(N)=O)C(=O)N[C@H](C(=O)NCC(=O)N[C@@H](CO)C(=O)N[C@@H](Cc1c[nH]cn1)C(=O)N[C@H](C(=O)N[C@@H](Cc1ccc(O)cc1)C(N)=O)[C@@H](C)O)C(C)C)[C@@H](C)O
notes: Analogue of human amylin; also called compound 47
B4: N^-1-[(4S)-4-carboxy-4-(19-carboxynonadecanoylamino)butanoyl]-Gly[Arg1,Arg17,Pro21,Pro27]-h-amylin (peptide)
peptide: {C20 diacid-γGlu}-GRCNTATCATQRLANFLRHSSPNFGAIPSSTNVGSNTY-NH2
modifications: disulfide 3-8
SMILES: CC[C@H](C)[C@H](NC(=O)[C@H](C)NC(=O)CNC(=O)[C@H](Cc1ccccc1)NC(=O)[C@H](CC(N)=O)NC(=O)[C@@H]1CCCN1C(=O)[C@H](CO)NC(=O)[C@H](CO)NC(=O)[C@H](Cc1c[nH]cn1)NC(=O)[C@H](CCCNC(=N)N)NC(=O)[C@H](CC(C)C)NC(=O)[C@H](Cc1ccccc1)NC(=O)[C@H](CC(N)=O)NC(=O)[C@H](C)NC(=O)[C@H](CC(C)C)NC(=O)[C@H](CCCNC(=N)N)NC(=O)[C@H](CCC(N)=O)NC(=O)[C@@H](NC(=O)[C@H](C)NC(=O)[C@@H]1CSSC[C@H](NC(=O)[C@H](CCCNC(=N)N)NC(=O)CNC(=O)CC[C@H](NC(=O)CCCCCCCCCCCCCCCCCCC(=O)O)C(=O)O)C(=O)N[C@@H](CC(N)=O)C(=O)N[C@@H]([C@@H](C)O)C(=O)N[C@@H](C)C(=O)N[C@@H]([C@@H](C)O)C(=O)N1)[C@@H](C)O)C(=O)N1CCC[C@H]1C(=O)N[C@@H](CO)C(=O)N[C@@H](CO)C(=O)N[C@H](C(=O)N[C@@H](CC(N)=O)C(=O)N[C@H](C(=O)NCC(=O)N[C@@H](CO)C(=O)N[C@@H](CC(N)=O)C(=O)N[C@H](C(=O)N[C@@H](Cc1ccc(O)cc1)C(N)=O)[C@@H](C)O)C(C)C)[C@@H](C)O
notes: Analogue of human amylin; also called compound 46

The first test has as its target T1, rat calcitonin receptor (rat, UniProt P32214 25-516).
T1 construct: whole, on cells; Used as membranes prepared from BHK tk'ts 13 cells transiently transfected with the rat calcitonin receptor (Assay VIII); also called rCTR; rat calcitonin (a) receptor
T1 sequence (looked up): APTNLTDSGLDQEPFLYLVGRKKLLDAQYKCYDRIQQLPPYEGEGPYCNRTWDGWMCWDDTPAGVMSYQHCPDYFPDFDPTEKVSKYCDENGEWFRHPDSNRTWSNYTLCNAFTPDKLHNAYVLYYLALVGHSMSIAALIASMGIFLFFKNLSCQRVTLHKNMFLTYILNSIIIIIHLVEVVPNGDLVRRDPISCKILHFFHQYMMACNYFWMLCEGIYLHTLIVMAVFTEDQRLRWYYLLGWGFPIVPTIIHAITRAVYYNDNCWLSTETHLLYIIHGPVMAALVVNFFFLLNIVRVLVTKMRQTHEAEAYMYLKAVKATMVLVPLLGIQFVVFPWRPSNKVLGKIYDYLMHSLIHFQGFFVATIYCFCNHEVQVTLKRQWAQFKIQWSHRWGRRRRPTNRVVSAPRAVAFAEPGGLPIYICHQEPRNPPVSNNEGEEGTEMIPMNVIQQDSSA
In words: IC50 on rat CTR divided by IC50 on rat amylin receptor (Assays VIII/VI).
Consider B1, for which the “Ratio rCT/rAmylin binding” value came to 28.5.
Regarding B2, the “Ratio rCT/rAmylin binding” value was found to be 53.3.
Consider B3, for which the “Ratio rCT/rAmylin binding” value was 84.3.
Take B4: the “Ratio rCT/rAmylin binding” value stood at 142.

Another test concerns the target T2, rat amylin receptor (rat calcitonin receptor + rat RAMP 3) (rat, UniProt P32214 25-516; Q9JJ73 23-147).
T2 construct: whole, on cells; Used as membranes prepared from BHK tk'ts 13 cells transiently transfected with rat calcitonin receptor and rat RAMP 3 (Assay VI); also called rAmylin-R; rat amylin 3(a) receptor
T2 sequence (looked up) 1: T1 sequence (looked up)
T2 sequence (looked up) 2: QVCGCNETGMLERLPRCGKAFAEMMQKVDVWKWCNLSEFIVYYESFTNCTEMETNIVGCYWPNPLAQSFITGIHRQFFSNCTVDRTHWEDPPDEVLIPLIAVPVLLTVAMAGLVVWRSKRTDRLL
In words: SPA competition with 125I-rat amylin, membranes of BHK cells with rat CTR + rat RAMP3 (Assay VI).
Turning to B1, the IC50 came out at 0.659 nM.
On to B2, for which the IC50 worked out at 0.369 nM.
Take B3: the IC50 was determined as 0.203 nM.
With B4, the IC50 was found to be 0.33 nM.

For the next test, the target named is T1, rat calcitonin receptor. Put plainly: SPA competition with 125I-calcitonin, membranes of BHK cells with rat CTR (Assay VIII).
Take B1: the IC50 amounted to 18.8 nM.
Regarding B2, the IC50 was 19.6 nM.
Consider B3, for which the IC50 was found to be 17.1 nM.
For B4, the IC50 is 46.8 nM.

The next test has as its target T3, human calcitonin receptor (human, UniProt P30988 25-474).
T3 construct: whole, on cells; Used as membranes prepared from a BHK tk'ts 13 cell line stably transfected with the human calcitonin receptor (Assay VII); also called hCTR; hCT
T3 sequence (looked up): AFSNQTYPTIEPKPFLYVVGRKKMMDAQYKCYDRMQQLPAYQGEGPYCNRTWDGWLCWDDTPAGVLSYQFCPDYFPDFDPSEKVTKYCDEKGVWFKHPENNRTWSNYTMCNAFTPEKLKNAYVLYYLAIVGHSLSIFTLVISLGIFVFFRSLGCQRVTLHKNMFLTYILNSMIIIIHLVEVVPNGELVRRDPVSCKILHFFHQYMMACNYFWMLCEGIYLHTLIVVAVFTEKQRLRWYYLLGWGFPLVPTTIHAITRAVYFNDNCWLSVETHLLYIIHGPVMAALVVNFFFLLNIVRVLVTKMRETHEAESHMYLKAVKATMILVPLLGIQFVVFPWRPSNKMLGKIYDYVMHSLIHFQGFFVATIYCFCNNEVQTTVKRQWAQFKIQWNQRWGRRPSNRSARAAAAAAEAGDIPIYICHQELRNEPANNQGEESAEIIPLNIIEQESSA
In words: IC50 on human CTR divided by IC50 on human amylin receptor (Assays VII/V). The method in brief: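 Competition binding by SPA with cell membranes (35 ng/μL) and SPA beads in 50 mM Hepes pH 7.4 with 1 mM CaCl2, 5 mM MgCl2, 0.1% OA and 0.02% Tween20. Incubated 120 min at 25 °C with shaking, then counted.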
On to B1, for which the “Ratio hCT/hAmylin binding” value came to 4.3.
B2: the “Ratio hCT/hAmylin binding” value was found to be 17.7.
Still for that read-out and setting: the result for B3 reads 44.9.
On the same count and under the same terms, the same measure for B4: 48.9.
